Legend:
[1] = system: MDA-MB231-LM2; experiment: Clonogenic rescue from BimS-induced death, MDA-MB231-LM2; type: cell-based; settings: lung metastatic derivative MDA-MB231-LM2
Description: Control or IB5-expressing cells were transfected with BimS cDNA. The plates were fixed and stained with crystal violet after 12 days and the total areas of colonies were measured. Mean, SD and P values were calculated from 3 individual plates.

[2] = system: MEFs; experiment: BimS-resistant clonogenic survival in MEFs; type: cell-based, mouse
Description: The plates were fixed and stained with crystal violet after 1 week and the total area of colonies were counted as above. The SD and P value was calculated from 6 individual plates.
WT, Mfn1- or Mfn2-deficient MEFs were infected or not with IB5 lentivirus, then 1×10^5 cells were plated and transfected with BimS expression plasmid. The plates were fixed and stained with crystal violet after 1 week and the total areas of colonies were measured as above. Mean, SD and P values were calculated from 5 individual plates.
Cell viability was measured with a Countess™ Automated Cell Counter (Invitrogen) using trypan blue. For the clonogenic survival assay, 293T or MEFs cells were seeded in 6-well plates at 1×10^5 cells/well in a 2-ml volume, transfected with BimS cDNA and incubated for 24 h. Afterwards, the medium was replaced and the cells cultured for 3-4 days. Thereafter, the plates were rinsed with PBS and fixed and stained with a solution containing crystal violet (0.5% w/v) and glutaraldehyde (6% v/v) as described (Franken et al., 2006).

[3] = target: T1, PKM2 (K422R) (Homo sapiens, UniProt P14618, K422R); experiment: Blue native gel electrophoresis, PKM2 (K422R); type: binding; settings: with or without FBP
T1 construct: His; made in house; host or cells: Escherichia coli BL21(DE3) (stated generally for WT and mutant PKM2)
Description: Left: A monovalent form of scFv 5, produced in E. coli, induced tetramer formation in WT PKM2 along with a bandshift whose magnitude was dependent on the input amount of scFv 5. […] Reaction volume was 20 μl.
To test the possibility that PKM2 tetramerization is important for the cell survival activity, the present inventors reconstituted PKM2-deficient MEFs with the stably tetrameric PKIM2 (K422R) mutant. […] Blue native gel electrophoresis confirmed the spontaneous formation of K422R tetramers, in the absence of FBP (FIG. 4A). […] The present inventors conclude that IB5 can bind to PKIM2 (K422R), at least to the active R-state form. Interaction of IB5 may further stabilize the active R-state conformation of PKM2, especially in the presence of the allosteric activators FBP or TEPP-46.

[4] = target: T2, PKM2 (K270M) (Homo sapiens, UniProt P14618, K270M); experiment: Pyruvate kinase assay, PKM2 (K270M); type: biochemical; settings: high concentrations of scFv 5
T2 construct: His (N); made in house; host or cells: Escherichia coli BL21(DE3)
Description: Activity was measured by Kinase-Glo® Plus Luminescent Kinase Assay kit (promega), using ADP and PEP as substrates), with PKM2 at 50 nM. Shown are values with the basal activity of PKM2 alone subtracted out.
Pyruvate kinase activity was measured by using Kinase-Glo® Plus Luminescent Kinase Assay kit (Promega). 50-100 nM of purified WT or mutant PKM2 was added in 100 μl assay buffer containing 50 mM Tris pH7.5, 100 mM KCl, 10 mM MgCl2, 200 μM PEP, 200 μM ADP, and 3% DMSO. After a 15-min incubation, Kinase-Glo Plus™ reagent (Promega Corporation, Madison, Wis., USA) was added, according to the manufacturer's instructions. In some cases, 0-40 μM fructose 1,6-bisphosphate (FBP) and 0-150 nM scFv 5 were added.

[5] = target: Bax (Homo sapiens, UniProt Q07812); experiment: In vitro Bax/cBid membrane permeabilization in liposomes or Xenopus egg mitochondrial outer membrane vesicles; type: biochemical; settings: recombinant scFv 5 added together with PKM2; not shown
Source text: Because no cytoprotective effect was seen when PKM2 was stimulated with allosteric activator TEPP-46 alone, or when PKM2 was replaced with the constitutively active PKIM1 (FIG. 3), the present inventors conclude that increased pyruvate kinase activity per se was insufficient for the cell survival effect induced by IB5. To test whether IB5:PIKM2 complexes could affect pro-apoptotic Bcl-2 family proteins directly, the present inventors used their own previously well-validated in vitro systems that recapitulate Bcl-2 family protein function in membranes. Here, recombinant Bax and cleaved Bid (cBid) proteins are incubated with protein-free liposomes or with isolated Xenopus egg mitochondrial outer membrane vesicles. Bax then becomes inserted into the membranes and forms large pores that recapitulate MOMP as it occurs within cells (Gillies et al., 2015; Kuwana et al., 2002; Kuwana et al., 2016; Schafer et al., 2009). The present inventors observed no effect of adding recombinant scFv 5 and PKIVI2 to these systems (not shown). Thus, the inventors saw no evidence that PKM2 acts directly on the process of Bax/Bak-mediated MOMP.

[6] = system: Mfn1, Mfn2; experiment: Immunoblot of Mfn1 and Mfn2 protein levels in reconstituted MEFs; type: cell-based, mouse

T2 sequence (P14618 whole entry K270M): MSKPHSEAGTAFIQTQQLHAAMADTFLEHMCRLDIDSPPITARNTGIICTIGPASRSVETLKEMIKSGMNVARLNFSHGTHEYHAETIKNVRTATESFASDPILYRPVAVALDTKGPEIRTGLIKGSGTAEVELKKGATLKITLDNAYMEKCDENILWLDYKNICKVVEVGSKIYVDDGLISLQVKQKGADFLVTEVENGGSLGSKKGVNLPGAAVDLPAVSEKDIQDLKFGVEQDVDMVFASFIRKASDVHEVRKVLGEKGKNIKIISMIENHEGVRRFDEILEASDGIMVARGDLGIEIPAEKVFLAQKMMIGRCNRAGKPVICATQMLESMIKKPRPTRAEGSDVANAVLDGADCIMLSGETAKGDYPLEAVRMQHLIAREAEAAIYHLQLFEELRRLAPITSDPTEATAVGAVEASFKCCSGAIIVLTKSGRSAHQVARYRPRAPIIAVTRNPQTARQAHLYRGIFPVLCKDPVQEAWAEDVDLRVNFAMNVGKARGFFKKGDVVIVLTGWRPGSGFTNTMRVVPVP
T1 sequence (P14618 whole entry K422R): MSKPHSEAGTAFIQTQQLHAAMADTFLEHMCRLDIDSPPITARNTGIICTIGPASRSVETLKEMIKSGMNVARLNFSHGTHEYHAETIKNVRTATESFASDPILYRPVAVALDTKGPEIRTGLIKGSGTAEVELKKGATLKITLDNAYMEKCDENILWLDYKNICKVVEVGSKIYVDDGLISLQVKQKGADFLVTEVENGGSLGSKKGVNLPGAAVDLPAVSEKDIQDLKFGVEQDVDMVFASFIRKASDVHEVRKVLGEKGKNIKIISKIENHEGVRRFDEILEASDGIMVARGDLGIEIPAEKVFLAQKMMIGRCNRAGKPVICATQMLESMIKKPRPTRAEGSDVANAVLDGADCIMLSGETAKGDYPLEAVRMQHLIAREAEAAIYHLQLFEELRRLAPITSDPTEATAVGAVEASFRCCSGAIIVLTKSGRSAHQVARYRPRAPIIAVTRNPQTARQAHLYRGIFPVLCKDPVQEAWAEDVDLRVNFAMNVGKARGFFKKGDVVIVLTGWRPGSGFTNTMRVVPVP
Sequence of Bax (Q07812 whole entry, species assumed): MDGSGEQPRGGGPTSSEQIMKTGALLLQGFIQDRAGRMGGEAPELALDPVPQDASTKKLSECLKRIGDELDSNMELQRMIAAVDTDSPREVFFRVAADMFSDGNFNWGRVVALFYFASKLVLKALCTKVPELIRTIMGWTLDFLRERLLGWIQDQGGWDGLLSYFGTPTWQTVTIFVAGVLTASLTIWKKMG

B1: IB5: intracellularly expressed single-chain antibody (scFv) specific for PKM2, SEQ ID NO: 2; also made as monovalent recombinant scFv in E. coli (protein)
scFv: MAQVQLVETGPGLVKPSETLSLRCTVSGGSFDNYYWNWIRQPPGKGLEYIGYVFPSTGATNYNPSLGSRVTISLDTSKNQFSLTLTSVTTADTAIYYCVRSGHDLWTGSTWFDPWGQWTTVTVSSGGGGSGGGGSGGGGSEIVLTQSPGTLSLSPGERATLSCRASQSVSSSYLAWYQQKPGQAPRLLIYGASSRATGIPDRFSGSGSGTDFTLTISRLEPEDIAVYYCQQRSNWPRTFGQGTKVEIKRGLGGLASVDYKDDDDK
modifications: artificial intrabody clone 5
notes: also made as monovalent recombinant scFv in E. coli
rescue from BimS-induced cell death [1]: failed to rescue | rescue from BimS-induced clonogenic death ([2]; Mfn1-deficient MEFs): failed to rescue | rescue from BimS-induced death (clonogenic) ([2]; Mfn2-null MEFs): rescued | rescue from BimS-induced death (clonogenic) ([2]; WT MEFs): rescued | clonogenic survival ([2]; early passage MEFs with PKM2 (K422R)): enhanced clonogenic survival | clonogenic survival ([2]; later-passage MEFs with PKM2 (K422R)): further enhanced | shift of the PKM2 (K422R) tetramer band [3]: shifted the tetramer band up only in the presence of allosteric activator FBP | catalytic activity of PKM2 (K270M) [4]: increased the catalytic activity | effect on Bax-mediated membrane pore formation (MOMP) in vitro [5]: no effect | levels of Mfn1 ([6]; cells expressing the K422R mutant): upregulated Mfn1 even further | Mfn2 levels ([6]; reconstituted MEFs): left Mfn2 levels unchanged | levels of Mfn1 ([6]; reconstituted MEFs): substantially increased

Source: patent US20200239597A1, “AN ANTI-APOPTOTIC FUNCTION OF PKM2 AND INTRACELLULARLY EXPRESSED SCFV ANTIBODIES” (La Jolla Institute for Allergy and Immunology, priority 2017, published 2020)
